# Test results reported in patent US20110294748A1 (Janssen / Centocor, published 2011).
# Molecular target: T1, soluble IGF1R (sIGF1R), extracellular domain of human insulin-like growth factor 1 receptor, carboxy-terminal … (human, UniProt P08069 31-932)
# T1 construct: Bought from R&D Systems; GenBank NP-000866 is printed for the whole receptor; also called IFG1R
# Assay: ELISA, culture supernatant on 2 µg/ml coated sIGF1R, Attophos detection
# Experimental: The binding of purified peptide-AP fusion proteins to sIGF1R was assessed using ELISA against immobilized sIGF1R. Briefly, bacteria transformed with each peptide-AP fusion expression vector were grown overnight and the following day the cultures were clarified by centrifugation at 4,500 rpm, 4° C. The supernatants were collected and 75 μl of each supernatant was assayed for binding to 2 μg/ml sIGF1R immobilized on ELISA plates. The bound peptides were detected using the Attophos Substrate (Roche, Indianapolis, Ind.) following the manufacturer's recommendation and read using a Molecular Devices M5 plate reader.
row,binding result,Binder
1,binds,"peptide-Alkaline phosphatase-His6 fusion protein of clone 14 (other, Tested as bacterial culture supernatant; also called peptide-AP fusion clone 14) VECDTPSITFSPGLEALFWNTCSPTPEMPVLENRAAQGDITTPGGARRLTGDQTAALRDSLSDKPAKNIILLIGDGMGDSEITAARNYAEGAGGFFKGIDALPLTGQYTHYALNKKTGKPDYVTDSAASATAWSTGVKTYNGALGVDIHEKDHPTILEMAKAAGLATGNVSTAELQGATPAALVAHVTSRKCYGPSATSEKCPGNALEKGGKGSITEQLLNARADVTLGGGAKTFAETATAGEWQGKTLREQAQTRGYQLVSDAASLNSVTEANQQKPLLGLFADGNMPVRWLGPKATYHGNIDKPAVTCTPNPQRNDSVPTLAQMTDKAIELLSKNEKGFFLQVEGASIDKQNHAANPCGQIGETVDLDEAVQRALEFAKKEGNTLVIVTADHAHASQIVAPDTKAPGLTQALNTKDGAVMVMSYGNSEEDSQEHTGSQLRIAAYGPHAANVVGLTDQTDLFYTMKAALGLKVPGGSGGGSGGGSGGGSGTPEMPVLENRAAQGDITTPGGARRLTGDQTAALRDSLSDKPAKNIILLIGDGMGDSEITAARNYAEGAGGFFKGIDALPLTGQYTHYALNKKTGKPDYVTDSAASATAWSTGVKTYNGALGVDIHEKDHPTILEMAKAAGLATGNVSTAELQGATPAALVAHVTSRKCYGPSATSEKCPGNALEKGGKGSITEQLLNARADVTLGGGAKTFAETATAGEWQGKTLREQAQTRGYQLVSDAASLNSVTEANQQKPLLGLFADGNMPVRWLGPKATYHGNIDKPAVTCTPNPQRNDSVPTLAQMTDKAIELLSKNEKGFFLQVEGASIDKQNHAANPCGQIGETVDLDEAVQRALEFAKKEGNTLVIVTADHAHASQIVAPDTKAPGLTQALNTKDGAVMVMSYGNSEEDSQEHTGSQLRIAAYGPHAANVVGLTDQTDLFYTMKAALGLKVPGNSHHHHHH"
2,binds,"peptide-Alkaline phosphatase-His6 fusion protein of clone 9 (other, Tested as bacterial culture supernatant; also called peptide-AP fusion clone 9) FTCAVYSLSELDCRDTPEMPVLENRAAQGDITTPGGARRLTGDQTAALRDSLSDKPAKNIILLIGDGMGDSEITAARNYAEGAGGFFKGIDALPLTGQYTHYALNKKTGKPDYVTDSAASATAWSTGVKTYNGALGVDIHEKDHPTILEMAKAAGLATGNVSTAELQGATPAALVAHVTSRKCYGPSATSEKCPGNALEKGGKGSITEQLLNARADVTLGGGAKTFAETATAGEWQGKTLREQAQTRGYQLVSDAASLNSVTEANQQKPLLGLFADGNMPVRWLGPKATYHGNIDKPAVTCTPNPQRNDSVPTLAQMTDKAIELLSKNEKGFFLQVEGASIDKQNHAANPCGQIGETVDLDEAVQRALEFAKKEGNTLVIVTADHAHASQIVAPDTKAPGLTQALNTKDGAVMVMSYGNSEEDSQEHTGSQLRIAAYGPHAANVVGLTDQTDLFYTMKAALGLKVPGGSGGGSGGGSGGGSGTPEMPVLENRAAQGDITTPGGARRLTGDQTAALRDSLSDKPAKNIILLIGDGMGDSEITAARNYAEGAGGFFKGIDALPLTGQYTHYALNKKTGKPDYVTDSAASATAWSTGVKTYNGALGVDIHEKDHPTILEMAKAAGLATGNVSTAELQGATPAALVAHVTSRKCYGPSATSEKCPGNALEKGGKGSITEQLLNARADVTLGGGAKTFAETATAGEWQGKTLREQAQTRGYQLVSDAASLNSVTEANQQKPLLGLFADGNMPVRWLGPKATYHGNIDKPAVTCTPNPQRNDSVPTLAQMTDKAIELLSKNEKGFFLQVEGASIDKQNHAANPCGQIGETVDLDEAVQRALEFAKKEGNTLVIVTADHAHASQIVAPDTKAPGLTQALNTKDGAVMVMSYGNSEEDSQEHTGSQLRIAAYGPHAANVVGLTDQTDLFYTMKAALGLKVPGNSHHHHHH"

# The remaining lines, values behind:
row,Binder,binding result
1,"peptide-Alkaline phosphatase-His6 fusion protein of clone 16 (other, Tested as bacterial culture supernatant; also called peptide-AP fusion clone 16) AGCPSPMPPVDPGFYSAIVQLCRETPEMPVLENRAAQGDITTPGGARRLTGDQTAALRDSLSDKPAKNIILLIGDGMGDSEITAARNYAEGAGGFFKGIDALPLTGQYTHYALNKKTGKPDYVTDSAASATAWSTGVKTYNGALGVDIHEKDHPTILEMAKAAGLATGNVSTAELQGATPAALVAHVTSRKCYGPSATSEKCPGNALEKGGKGSITEQLLNARADVTLGGGAKTFAETATAGEWQGKTLREQAQTRGYQLVSDAASLNSVTEANQQKPLLGLFADGNMPVRWLGPKATYHGNIDKPAVTCTPNPQRNDSVPTLAQMTDKAIELLSKNEKGFFLQVEGASIDKQNHAANPCGQIGETVDLDEAVQRALEFAKKEGNTLVIVTADHAHASQIVAPDTKAPGLTQALNTKDGAVMVMSYGNSEEDSQEHTGSQLRIAAYGPHAANVVGLTDQTDLFYTMKAALGLKVPGGSGGGSGGGSGGGSGTPEMPVLENRAAQGDITTPGGARRLTGDQTAALRDSLSDKPAKNIILLIGDGMGDSEITAARNYAEGAGGFFKGIDALPLTGQYTHYALNKKTGKPDYVTDSAASATAWSTGVKTYNGALGVDIHEKDHPTILEMAKAAGLATGNVSTAELQGATPAALVAHVTSRKCYGPSATSEKCPGNALEKGGKGSITEQLLNARADVTLGGGAKTFAETATAGEWQGKTLREQAQTRGYQLVSDAASLNSVTEANQQKPLLGLFADGNMPVRWLGPKATYHGNIDKPAVTCTPNPQRNDSVPTLAQMTDKAIELLSKNEKGFFLQVEGASIDKQNHAANPCGQIGETVDLDEAVQRALEFAKKEGNTLVIVTADHAHASQIVAPDTKAPGLTQALNTKDGAVMVMSYGNSEEDSQEHTGSQLRIAAYGPHAANVVGLTDQTDLFYTMKAALGLKVPGNSHHHHHH",binds
2,"peptide-Alkaline phosphatase-His6 fusion protein of clone 8 (other, Tested as bacterial culture supernatant; also called peptide-AP fusion clone 8) PVCPSFCYDQYVCPTTPEMPVLENRAAQGDITTPGGARRLTGDQTAALRDSLSDKPAKNIILLIGDGMGDSEITAARNYAEGAGGFFKGIDALPLTGQYTHYALNKKTGKPDYVTDSAASATAWSTGVKTYNGALGVDIHEKDHPTILEMAKAAGLATGNVSTAELQGATPAALVAHVTSRKCYGPSATSEKCPGNALEKGGKGSITEQLLNARADVTLGGGAKTFAETATAGEWQGKTLREQAQTRGYQLVSDAASLNSVTEANQQKPLLGLFADGNMPVRWLGPKATYHGNIDKPAVTCTPNPQRNDSVPTLAQMTDKAIELLSKNEKGFFLQVEGASIDKQNHAANPCGQIGETVDLDEAVQRALEFAKKEGNTLVIVTADHAHASQIVAPDTKAPGLTQALNTKDGAVMVMSYGNSEEDSQEHTGSQLRIAAYGPHAANVVGLTDQTDLFYTMKAALGLKVPGGSGGGSGGGSGGGSGTPEMPVLENRAAQGDITTPGGARRLTGDQTAALRDSLSDKPAKNIILLIGDGMGDSEITAARNYAEGAGGFFKGIDALPLTGQYTHYALNKKTGKPDYVTDSAASATAWSTGVKTYNGALGVDIHEKDHPTILEMAKAAGLATGNVSTAELQGATPAALVAHVTSRKCYGPSATSEKCPGNALEKGGKGSITEQLLNARADVTLGGGAKTFAETATAGEWQGKTLREQAQTRGYQLVSDAASLNSVTEANQQKPLLGLFADGNMPVRWLGPKATYHGNIDKPAVTCTPNPQRNDSVPTLAQMTDKAIELLSKNEKGFFLQVEGASIDKQNHAANPCGQIGETVDLDEAVQRALEFAKKEGNTLVIVTADHAHASQIVAPDTKAPGLTQALNTKDGAVMVMSYGNSEEDSQEHTGSQLRIAAYGPHAANVVGLTDQTDLFYTMKAALGLKVPGNSHHHHHH",binds
3,"peptide-Alkaline phosphatase-His6 fusion protein of clone 11 (other, Tested as bacterial culture supernatant; also called peptide-AP fusion clone 11) HTCFYPTLMPPELCFDTPEMPVLENRAAQGDITTPGGARRLTGDQTAALRDSLSDKPAKNIILLIGDGMGDSEITAARNYAEGAGGFFKGIDALPLTGQYTHYALNKKTGKPDYVTDSAASATAWSTGVKTYNGALGVDIHEKDHPTILEMAKAAGLATGNVSTAELQGATPAALVAHVTSRKCYGPSATSEKCPGNALEKGGKGSITEQLLNARADVTLGGGAKTFAETATAGEWQGKTLREQAQTRGYQLVSDAASLNSVTEANQQKPLLGLFADGNMPVRWLGPKATYHGNIDKPAVTCTPNPQRNDSVPTLAQMTDKAIELLSKNEKGFFLQVEGASIDKQNHAANPCGQIGETVDLDEAVQRALEFAKKEGNTLVIVTADHAHASQIVAPDTKAPGLTQALNTKDGAVMVMSYGNSEEDSQEHTGSQLRIAAYGPHAANVVGLTDQTDLFYTMKAALGLKVPGGSGGGSGGGSGGGSGTPEMPVLENRAAQGDITTPGGARRLTGDQTAALRDSLSDKPAKNIILLIGDGMGDSEITAARNYAEGAGGFFKGIDALPLTGQYTHYALNKKTGKPDYVTDSAASATAWSTGVKTYNGALGVDIHEKDHPTILEMAKAAGLATGNVSTAELQGATPAALVAHVTSRKCYGPSATSEKCPGNALEKGGKGSITEQLLNARADVTLGGGAKTFAETATAGEWQGKTLREQAQTRGYQLVSDAASLNSVTEANQQKPLLGLFADGNMPVRWLGPKATYHGNIDKPAVTCTPNPQRNDSVPTLAQMTDKAIELLSKNEKGFFLQVEGASIDKQNHAANPCGQIGETVDLDEAVQRALEFAKKEGNTLVIVTADHAHASQIVAPDTKAPGLTQALNTKDGAVMVMSYGNSEEDSQEHTGSQLRIAAYGPHAANVVGLTDQTDLFYTMKAALGLKVPGNSHHHHHH",binds
4,"peptide-Alkaline phosphatase-His6 fusion protein of clone 12 (other, Tested as bacterial culture supernatant; also called peptide-AP fusion clone 12) SNCPPLDMRLTELCVMTPEMPVLENRAAQGDITTPGGARRLTGDQTAALRDSLSDKPAKNIILLIGDGMGDSEITAARNYAEGAGGFFKGIDALPLTGQYTHYALNKKTGKPDYVTDSAASATAWSTGVKTYNGALGVDIHEKDHPTILEMAKAAGLATGNVSTAELQGATPAALVAHVTSRKCYGPSATSEKCPGNALEKGGKGSITEQLLNARADVTLGGGAKTFAETATAGEWQGKTLREQAQTRGYQLVSDAASLNSVTEANQQKPLLGLFADGNMPVRWLGPKATYHGNIDKPAVTCTPNPQRNDSVPTLAQMTDKAIELLSKNEKGFFLQVEGASIDKQNHAANPCGQIGETVDLDEAVQRALEFAKKEGNTLVIVTADHAHASQIVAPDTKAPGLTQALNTKDGAVMVMSYGNSEEDSQEHTGSQLRIAAYGPHAANVVGLTDQTDLFYTMKAALGLKVPGGSGGGSGGGSGGGSGTPEMPVLENRAAQGDITTPGGARRLTGDQTAALRDSLSDKPAKNIILLIGDGMGDSEITAARNYAEGAGGFFKGIDALPLTGQYTHYALNKKTGKPDYVTDSAASATAWSTGVKTYNGALGVDIHEKDHPTILEMAKAAGLATGNVSTAELQGATPAALVAHVTSRKCYGPSATSEKCPGNALEKGGKGSITEQLLNARADVTLGGGAKTFAETATAGEWQGKTLREQAQTRGYQLVSDAASLNSVTEANQQKPLLGLFADGNMPVRWLGPKATYHGNIDKPAVTCTPNPQRNDSVPTLAQMTDKAIELLSKNEKGFFLQVEGASIDKQNHAANPCGQIGETVDLDEAVQRALEFAKKEGNTLVIVTADHAHASQIVAPDTKAPGLTQALNTKDGAVMVMSYGNSEEDSQEHTGSQLRIAAYGPHAANVVGLTDQTDLFYTMKAALGLKVPGNSHHHHHH",binds
